Substitutions are numbered along the chain they refer to. Numbers in names are those of the source. No end group written: not given here. TMR = tetramethyl rhodamine dye
T1: Rb^P V654L (human, UniProt P06400 380-788, V654L)
T1 construct: also called variant 47
T1 sequence (looked up): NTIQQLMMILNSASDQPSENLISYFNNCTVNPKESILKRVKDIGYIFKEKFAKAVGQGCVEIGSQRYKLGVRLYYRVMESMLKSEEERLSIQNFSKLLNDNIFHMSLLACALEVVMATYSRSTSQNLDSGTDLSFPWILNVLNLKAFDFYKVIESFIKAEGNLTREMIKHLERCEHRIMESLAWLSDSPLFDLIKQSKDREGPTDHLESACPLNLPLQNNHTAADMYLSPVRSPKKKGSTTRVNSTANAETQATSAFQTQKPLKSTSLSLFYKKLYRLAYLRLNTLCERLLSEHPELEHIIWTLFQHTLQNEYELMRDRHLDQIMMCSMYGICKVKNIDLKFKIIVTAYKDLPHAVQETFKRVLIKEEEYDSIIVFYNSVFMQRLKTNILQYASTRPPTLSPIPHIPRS

T2: Rb^P E492Q (human, UniProt P06400 380-788, E492Q)
T2 construct: also called variant 18
T2 sequence (looked up): T1 sequence (looked up) with E113Q, L275V

T3: Rb^P E533K (human, UniProt P06400 380-788, E533K)
T3 construct: also called variant 22
T3 sequence (looked up): T1 sequence (looked up) with E154K, L275V

T4: Rb^P T687I (human, UniProt P06400 380-788, T687I)
T4 construct: also called variant 59
T4 sequence (looked up): T1 sequence (looked up) with L275V, T308I

T5: Rb^P S588F (human, UniProt P06400 380-788, S588F)
T5 construct: also called variant 34
T5 sequence (looked up): T1 sequence (looked up) with S209F, L275V

B1: TMR-E2F1^TD, peptide of the E2F1 transactivation domain (peptide)
peptide: {TMR}-GEGIRDLFDCDFGDLTPLD
notes: also called E2F^TD; source: synthetic peptide, bought: GenScript
B2: TMR-E7^LxCxE, LxCxE peptide of the E7 oncoprotein from HPV (peptide)
peptide: DLYCYEQLN
modifications: also: TMR label, position not given here
notes: source: synthetic peptide, bought: GenScript

Legend:
Assay in all cases: fluorescence polarisation; 37 °C, after the 25 °C reading ramped over 7 min to 37 °C and 2 min incubation; unlabeled Rb^P against 1.5 nM TMR-E2F1^TD or 7.5 nM TMR-E7^LxCxE; 25 mM Tris pH 8.0, 200 mM NaCl, 1 mM DTT, 0.1% Tween-20; apparent Kd
Conditions in all cases: both partners purified
[1] = biological target: T1, Rb^P V654L
[2] = biological target: T2, Rb^P E492Q
[3] = biological target: T3, Rb^P E533K
[4] = biological target: T4, Rb^P T687I
[5] = biological target: T5, Rb^P S588F

| Binder | Kd [1] | Kd [2] | Kd [3] | Kd [4] | Kd [5] |
| --- | --- | --- | --- | --- | --- |
| B1 | 30 nM | 73 nM | 1800 nM | 40 nM | 51 nM |
| B2 | 21 nM | 52 nM | 14 nM | 29 nM | 16 nM |
